According to the RNAGym collection of RNA variant scans (doi:10.1073/pnas.2313332121):

B1: TPR t1 (parent)
chain: GACCAAUCUGCCCUCAGAGCUCGAGAACAUCUUCGGAUGCAGAGGAGGCAGGCUUCGGUGGCGCGAUAGCGCCAACGUCCUCAACCUCCAAUGCAUCCCACCACAUGAUGAUGCCUGAAGAGCCUUGGUUUUUUG

Variants of: B1
Assay: polymerase ribozyme fitness, log enrichment relative to wild type (log ratio); higher = more active; in vitro selection for triplet polymerase activity
How it was run: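 Mutant libraries of each subunit of a heterodimeric triplet polymerase ribozyme were built by PCR and transcribed. Each library went through one round of in vitro selection in triplicate: annealing with biotinylated primer, partner subunit and triplets, frozen incubation at −7 °C, gel excision of extended constructs, streptavidin-bead capture and RT-PCR. Input and output libraries were Illumina-sequenced; only genotypes with ≥10 input reads and ≥1 read per output were kept. Fitness is log2(genotype enrichment/wild-type enrichment), using inverse-variance-weighted replicate averages.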

Variant	polymerase ribozyme fitness (log ratio)
GACCAAGCUGCCCUCAGAGCUCGAGAACAUCUUCGGAUGCAGAGGAGGUAGGCUUUGGUGGCGCGAUAGCGCCAACGCCCUCAACCUCCAAUGUAUCCCACCACAUGAUGCUGCCUGAAGAGCCUUGGUUUUUUG [U7G C49U C56U U78C C94U A111C]	-0.959
GACCAAGCUGCCCUCAGAGCUCGAGAAUAUCUUCGGAUGCAGAGGAGACAGGCUUCGGUGACGCGAUAGCGCCAACGUCCUCAACCUCCAAUGCAUCCCACCACAUGAUGAUGCCUGAAGAGCCUUGGUUUUUUG [U7G C28U G48A G61A]	-1.28
GACCAAGCUGCCCUCAGAGAUCGAGAACAUCUUCGGAUACAGAGGAGGGAGGCUUCGGUGCCGCGAUAGCGCCAACGUCCUCAACCUCCAAUGCAUCCCACCACAUGAUGAUGCCUGAAGGGCCUUGGUUUUUUG [U7G C20A G39A C49G G61C A121G]	-3.89
GACCAAGCUGCCCUCAGAGCUCGAGAACAUCUUCGGAUGCAGAGGAGGCAGGCUUCGGUGGCGCGAUAGAGUCAACGUCCUCAACCUCCAAUCCAUCCCACCACAUGAUGAUGCUUGAAGAGCCUUGGUUUUUUG [U7G C70A C72U G93C C115U]	-4.07
GACCAAGCUGCCCUCAGAGCUCGAGAACAUCUUCGGAUGUAGAGGAGGCAGGCUUCGGUGGCGCGAUAGCGCCAACGUCCUCAACCUCCAAUGCAUCCCACCACAUGAUGAUGCCUGAAGAGCCUUGGUUUUUUG [U7G C40U]	0.849
GACCAAGCUGCCCUCAGAGCUCGAGAACAUCUUCGGAUGCAGAGGAGGCAGGCUUCGGUGGCGCGAUAGCGGCAACGUCCUCAACCUCCAAUGCAUCCCACCACAUGAUGAUGCCUGAAGAGCCUUGGUUUUUUG [U7G C72G]	0.441
GACCAAGCUGCCCUCAGAGCUCGAGAACAUCUUCGGAUGCAGAGGAGGCAGGCUUCGGUGGCGCGAUAGCGUCAACGUCCUCAACCUCCAAUGCAUCCCACCACAUGAUGAUGCCUGAAGAGCCUUGGUUUUUUG [U7G C72U]	0.255
GACCAAGCUGCCCUCAGAGCUCGAGAACAUCUUCGGAUGCAGAGGAGGCAGGCUUGGGUGGCGCGAUAGCGCCAACGUCCUCAACGUCCAAUGCAGCCCACCACAUGAUGAUGCCUGAAGAGCCUUGGUUUUUUG [U7G C56G C86G U96G]	-2.15
GACCAAGCUGCCCUCAGAGCUCGAGAACAUCUUCGGAUGCAGAGGAGGCAGGGUUCGGUGGCGCGAUAGCGCCAACGUCCUCAACCUCCAAUGCAUCCCACCACAUGAUGAUGCUGGAAGAGCCUUGGUUUUUUG [U7G C53G C115U U116G]	-0.555
GACCAAGCUGCCCUCAGAGCUCGAGAACAUCUUCGGAUGUAGAGGAGGCAGGCUUCGGUGGCGCGAUAGCGACAACGUCCUCAACUUCCAAUUCAUCCCACAACAAGAUGAUGCCUGAAGAGCCUUGGUUUUUUG [U7G C40U C72A C86U G93U C102A U106A]	-5.6
GACCAAGCUGCCCUCAGAGCUCGAGAACAUCUUCGGAUGCAGAGGAGGCAGGUUUCGGUGGGGCGAUAGCGCCAACGUCCUCAACCUCCAAUGCAUCCCAGAACAUGAUGAUGCCUGAAUAGCCUUAGUUUUUUG [U7G C53U C62G C101G C102A G120U G127A]	-7.14
GACCAAGCUGCCCUCAGAGCUCGAGAACAUCUUCGGAUGCAGAGGAGGCAGGCUUCGGUGGCGCGAUAGCGCCAACGUUUUCAACCUCCAAUGCAUCCCACCACAUGAUGAUGCCUGAAGAGCCUUGGUUUUUUG [U7G C79U C80U]	-1.81
GACCAAGCUGCCCUCAGAGCUCGAGAACAUCUUCGGAUGCAGAGGAGGCAGGCUUCGGUGGCGCGAUAGCGCCAACGUCCUCAACCUUCAAUGCAUCCCACCACAUGAUGAUGCCUGAAGAGCCUUGGUUUUUUG [U7G C88U]	-0.443
GACCAAGCUGCCCUCAGAGCUCGAGAACAUCUUCGGAUGCAGAGGAGGCAGGCUUCGGUGGCGCGAUAGUGCCAACGUCCUCAACCUCCAAUCCAUCCCACCACAUGAUGAUGCCUGAAGAGCCUUGGUUUUUUG [U7G C70U G93C]	-0.518
GACCAAGCUGCCCUCAGAGCUCGAGAACAUCUUCGGAUGCAGAGGAGGCAGGCUUAUGUGGCGCGAUAGCGCCAACGUCCUCAACCUCAAAUGCAUCCCACCACAUGAUGAUGCCUGAAGAGCCUUGGUUUUUUG [U7G C56A G57U C89A]	-0.967
GACCAAGCUGCCCUCAGAGCUCGAGAACAUCUUCGGAUGCAGAGGAGGCAGGCUUAGGUGGCGCGAUAGCGCCAACGUCCUCAGCCUCCAAUGCAUCCCACCACAUGAUGAUGCCUGAAGAGCCUUGGUUUUGUU [U7G C56A A84G U133G G135U]	-0.824
GACCAAGCUGCCCUCAGAGCUCGAGAACAUCUUCGGAUGCAGAGGAGGCAGGCUUCGGUGGCGCGAUAGGGCCAACGUCCUCAACCUCCAAUGCAUCCCACCACAUGAUGAUGCCUGAAGAGCCUUGGUUUUUUG [U7G C70G]	-2.23
GACCAAGCUGCCCUCAGAGCUCGAGAACAUCUUCGGAUGCAGAGGAGGCAGGCUUCGGUGGCGUGAUAGCGCCAACGUCCUCAACCUCCAAUGCAUUCCACCACAUAAUGAAGCCUGAAGAGCCUUGGUUUUUUG [U7G C64U C97U G107A U112A]	-5.51
GACCAAGCUGCCCUCAGAGCUCGAGAACAUCUUCGGAUGCAGAGGAGGCAGGCUUCGGUGGCGCGAUAGCGCCAACGUUCUCAACCUCCAAUGCAUCCCACCACAUGAUGAUGCCUGAAGAGCGUUGGUUUUUUG [U7G C79U C124G]	2.41
GACCAAGCUGCCCUCAGAGCUCGAGAACAUCUUCGGAUGCAGAGGAGGCAGGCUUCGGUGGCGCGAUAGUGCCAACGUCCUCCACCUCCAAUGCAUACCACCACAUGAUGAUGCCUGAAGAGCCUUGGUUUUUUG [U7G C70U A83C C97A]	-5.37
GACCAAGCUGCCCUCAGAGCUCGAGAACAUCUUCGGAUGCAGAGGAGGCAGGCUUCGGUGGCGCGAUAGGGCCAACGUCCUCAACCUCCAAUGCAUCCCACUACAAGAUGAUGCCUGAAGAGCCUUGGUUUUUUG [U7G C70G C102U U106A]	-4.46
